Data: US20250230222A1 (NORTHWESTERN UNIVERSITY, published 2025)

Molecular target: SARS-nCoV-2 Spike RBD (Raybiotech, catalog no. 230-30162), recombinant wildtype (SARS-CoV-2, UniProt P0DTC2 319-541)

B1: IgG 106/107 (antibody, V domains shown)
VH: EVQLVESGGGLVQPGGSLRLSCVASGITVSANYMSWVRQAPGKGLEWVSVIYSGGSTFYADSVKGRFTISRDNSKNTLYLQMNNLRADDTAVYSCARDFRGATAFDIWGQGTMVTVSS
VL: QSALTQPASVSGSPGQSITISCTATSSDVDDYNYVSWYQQHPGKAPKLLIYDVNNRPSGVSNRFSGSKSGNTASLTISGLQAEDEADYYCSSYTSSSTGVFGSGTKVTVLG
With B1 the IC50 was < 0.5 nM.
